Experimental data published in patent publication US20230250461A1.

What was measured:
[1] = biological target: IvaP from Vibrio cholerae, the alkaline serine protease corresponding to the gene VC 0157 (purified) (Vibrio cholerae); experiment: cell-based or functional assay
[2] = biological target: IvaP from Vibrio cholerae, the alkaline serine protease corresponding to the gene VC 0157 (purified) (Vibrio cholerae); experiment: solvatochromic dye fluorescence, multi-well plate reader; probe 3 µM, IvaP 1 µM preincubated with PMSF (FIG. 9B)
[3] = biological target: IvaP from Vibrio cholerae, the alkaline serine protease corresponding to the gene VC 0157 (purified) (Vibrio cholerae); experiment: solvatochromic dye fluorescence, plate reader; I9-dye conjugate 3 µM, IvaP 1 µM (FIG. 7A)

Substance | decrease in fluorescence intensity [1] [fold] | increase in fluorescence intensity [2] [fold] | relative fluorescence change (Fbound/Funbound) [3] [fold]
I9 E123C-MDCC conjugate (peptide) | 4 |  | 
I9 I128C-IANBD conjugate (peptide) |  | 2 | 2
